Results taken from publication PMC4813464, “Recombinant Collagen Engineered to Bind to Discoidin Domain Receptor Functions as a Receptor Inhibitor*” (The Journal of Biological Chemistry, 2015).

T1: Collagen type III, pepsin-extracted from bovine skin (bovine, UniProt P04258 1-1049, 4-hydroxyproline in Yaa positions (positions not listed))
T1 construct: bovine collagen alpha1(III) chain, pepsin-extracted from skin; Homotrimer of alpha1(III) chains; native triple helix unless denatured (90 °C, 30 min); also called Bovine Collage III; collagen III; source: pepsin-extracted from bovine skin (provided by Dr. John Ramshaw)
T1 sequence (looked up): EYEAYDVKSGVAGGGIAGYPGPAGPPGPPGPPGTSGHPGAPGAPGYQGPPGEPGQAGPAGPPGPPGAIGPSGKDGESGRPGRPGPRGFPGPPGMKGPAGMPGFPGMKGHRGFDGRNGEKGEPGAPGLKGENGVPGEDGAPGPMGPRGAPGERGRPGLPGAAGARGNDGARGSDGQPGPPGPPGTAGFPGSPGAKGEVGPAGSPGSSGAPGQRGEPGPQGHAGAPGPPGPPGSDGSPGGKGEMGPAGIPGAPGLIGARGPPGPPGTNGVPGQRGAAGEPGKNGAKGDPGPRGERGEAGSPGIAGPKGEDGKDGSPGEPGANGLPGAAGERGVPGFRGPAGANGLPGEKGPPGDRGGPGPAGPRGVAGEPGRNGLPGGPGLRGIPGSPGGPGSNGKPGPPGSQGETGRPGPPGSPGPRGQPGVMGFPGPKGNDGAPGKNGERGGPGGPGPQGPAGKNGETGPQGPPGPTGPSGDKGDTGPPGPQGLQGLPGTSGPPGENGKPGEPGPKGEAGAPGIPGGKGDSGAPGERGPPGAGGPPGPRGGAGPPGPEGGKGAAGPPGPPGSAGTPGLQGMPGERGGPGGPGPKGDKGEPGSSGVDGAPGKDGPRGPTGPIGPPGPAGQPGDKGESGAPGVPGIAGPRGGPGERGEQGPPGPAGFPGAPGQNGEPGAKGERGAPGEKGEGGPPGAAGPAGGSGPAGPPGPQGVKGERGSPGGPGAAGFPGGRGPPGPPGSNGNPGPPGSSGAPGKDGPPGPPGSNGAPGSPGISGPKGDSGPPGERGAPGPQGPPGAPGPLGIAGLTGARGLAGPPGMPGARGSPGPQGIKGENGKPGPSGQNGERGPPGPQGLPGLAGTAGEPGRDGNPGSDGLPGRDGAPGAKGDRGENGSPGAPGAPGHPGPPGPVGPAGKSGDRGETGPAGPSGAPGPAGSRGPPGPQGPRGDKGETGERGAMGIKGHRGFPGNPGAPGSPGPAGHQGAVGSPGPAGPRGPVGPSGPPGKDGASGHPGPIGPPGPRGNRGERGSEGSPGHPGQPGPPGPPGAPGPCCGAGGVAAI


Assays:
Experiment in all cases: ELISA; solid-phase binding assay: native (triple-helical) collagens coated at 200 μg/ml in PBS on Immulon 2HB plates overnight at 4 °C; DDR-Fc at 20 μg/ml (∼220 nM) or in a series of 0-60 μg/ml (0-667 nM) in PBS, 3 h at room temperature; anti-Fc detection, A450; apparent Kd from a one-site fit
[1] = molecular target: SCl-DDR4 (bacterial collagen with four triplets of the human collagen III DDR-binding sequence) (Streptococcus pyogenes | human)
[2] = molecular target: SCl-DDR6 (bacterial collagen with six triplets of the human collagen III DDR-binding sequence) (Streptococcus pyogenes | human)
[3] = molecular target: T1, Collagen type III, pepsin-extracted …; details: both partners purified

Molecule | Kd [1] [nM] | Kd [2] [nM] | Kd [3] [nM]
DDR1-Fc (recombinant human discoidin domain receptor 1 ectodomain, Fc-tagged) (from UniProt Q08345 21-417) (Fc fusion) | 53.3 | 66 | 
DDR1-Fc (recombinant human discoidin domain receptor 1 ectodomain, Fc-tagged) (Fc fusion, UniProt Q08345 21-417, looked up, human discoidin domain receptor 1, ectodomain; IgG1 Fc, R&D Systems) stood in which experiment; In the functional rows the receptor was full-length DDR1a in HEK293 cells or endogenous DDR1 on human megakaryocytes; also called DDR1 ectodomain; source: HEK293-EBNA, episomally transfected, purified (rProtein A) (IgG2 Fc); for some experiments bought: R&D Systems (IgG1 Fc)) DMKGHFDPAKCRYALGMQDRTIPDSDISASSSWSDSTAARHSRLESSDGDGAWCPAGSVFPKEEEYLQVDLQRLHLVALVGTQGRHAGGLGKEFSRSYRLRYSRDGRRWMGWKDRWGQEVISGNEDPEGVVLKDLGPPMVARLVRFYPRADRVMSVCLRVELYGCLWRDGLLSYTAPVGQTMYLSEAVYLNDSTYDGHTVGGLQYGGLGQLADGVVGLDDFRKSQELRVWPGYDYVGWSNHSFSSGYVEMEFEFDRLRAFQAMQVHCNNMHTLGARLPGGVECRFRRGPAMAWEGEPMRHNLGGNLGDPRARAVSVPLGGRVARFLQCRFLFAGPWLLFSEISFISDVVNNSSPALGGTFPPAPWWPPGPPPTNFSSLELEPRGQQPVAKAEGSPTA |  |  | 15.2 ± 0.9
DDR2-Fc (recombinant human discoidin domain receptor 2 ectodomain, Fc-tagged) (Fc fusion, UniProt Q16832 22-399, looked up, human discoidin domain receptor 2, ectodomain; In the functional rows the receptor was full-length DDR2 in HEK293 cells; also called DDR2 ectodomain; source: HEK293-EBNA, episomally transfected, purified (rProtein A)) KAQVNPAICRYPLGMSGGQIPDEDITASSQWSESTAAKYGRLDSEEGDGAWCPEIPVEPDDLKEFLQIDLHTLHFITLVGTQGRHAGGHGIEFAPMYKINYSRDGTRWISWRNRHGKQVLDGNSNPYDIFLKDLEPPIVARFVRFIPVTDHSMNVCMRVELYGCVWLDGLVSYNAPAGQQFVLPGGSIIYLNDSVYDGAVGYSMTEGLGQLTDGVSGLDDFTQTHEYHVWPGYDYVGWRNESATNGYIEIMFEFDRIRNFTTMKVHCNNMFAKGVKIFKEVQCYFRSEASEWEPNAISFPLVLDDVNPSARFVTVPLHHRMASAIKCQYHFADTWMMFSEITFQSDAAMYNNSEALPTSPMAPTTYDPMLKVDDSNTR | 81.2 | 69.7 | 20 ± 1.9
